Several values for one entry are separate records, joined by “and”; a condition that tells them apart may be missing. Identical values can stand only once.
T1: human isoleucine zipper-CD40L (IZ-hCD40L) (human, UniProt P29965 113-261)
T1 sequence: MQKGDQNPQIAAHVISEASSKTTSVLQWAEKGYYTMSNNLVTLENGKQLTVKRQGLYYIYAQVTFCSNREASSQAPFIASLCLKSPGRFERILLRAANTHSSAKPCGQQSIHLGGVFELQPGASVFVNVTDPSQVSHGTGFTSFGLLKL

B1: BMS2h-707 (other)
VH: EVQLLESGGGLVQPGGSLRLSCAASGFTFETYRMSWVRQAPGKGLEWVSAIDQEGSATYYADSVKGRFTISRDNSKNTLYLQMNSLRAEDTAVYYCAKNSGTRPGLRFDYWGQGTLVTVSS
B2: BMS2h-723 (other)
VH: EVQLLESGGGLVQPGGSLRLSCAASGFTFDLYDMMWVRQAPGKGLEWVSSISDLGTLTYYADSVKGRFTISRDNSKNTLYLQMNSLRAEDTAVYYCAKNGFRVTSNDRRFDYWGQGTLVTVSS
B3: BMS2h-745 (other)
VH: EVQLLESGGGLVQPGGSLRLSCAASGFTFDNTEMAWVRQAPGKGLEWVSGIIEDGNRTYYADSVKGRFTISRDNSKNTLYLQMNSLRAEDTAVYYCAKIRNLHWDVGRQFDYWGQGTLVTVSS
B4: BMS2h-745-9 (other)
VH: EVQLLESGGGSVQPGGSLRLSCAASGFTFDNTEMAWVRQAPGKGLEWVSGITEDGNRTYYADSVKGRFTISRDNSKNTLYLQMNSLRAEDTAVYYCAKIRNLHWDVGRQFVYWGQGTLVTVSS
B5: BMS2h-745-14 (other)
VH: EVQLLESGGGLVQPGGSLRLSCAASGFTFDNTEMAWIRQAPGKGLEWVSGITEDGNRTYYADSVKGRFTISRDNSKNTLYLQMNSLRAEDTAVYYCAKIRNLHWDVGRQFDYWGQGTLVTVSS
B6: BMS2h-745-13 (other)
VH: EVQLLESGGGLVQPGGSLRLSCAASGFTFDNTEMAWIRQAPGKGLEWVSGIIEDGNRTYYADSVKGRFTISRDNSKNTLYLQMNSLRAEDTAVYYCAKIRNLHWDVGRQFDYWGQGTLVTVSS
B7: BMS2h-745-2 (other)
VH: EVQLLESGGGLVQPGGSLRLSCAASGFTFDNTEMAWVRQAPGKGLEWVSGISEDGNRTYYADSVKGRFTISRDNSKNTLYLQMNSLRAEDSAVYYCAKIRNLHWDVGRQFVYWGQGTLVTVSS
B8: BMS2h-745-1 (other)
VH: EVQLLESGGGLVQPGGSLRLSCAASGFTFDNTEMAWVRQAPGKGLEWVSGITEDGNRTYYADSVKGRFTISRDNSKNTLYLQMNSLRAEDTAVYYCAKIRNLHWDVGRQFDYWGQGTLVTVSS
B9: BMS2h-703 (other)
VH: EVQLLESGGGLVQPGGSLRLSCAASGFTFYNYDMSWVRQAPGKGLEWVSGIDSMGLVTYYADSVKGRFTISRDNSKNTLYLQMNSLRAEDTAVYYCAKGSNASDWVVFDYWGQGTLVTVSS
B10: BMS2h-702 (other)
VH: EVQLLESGGGLVQPGGSLRLSCAASGFTFAEYEMMWARQAPGKGLEWVSRIAGNGSRTYYADSVKGRFTISRDNSKNTLYLQMNSLRAEDTAVYYCAIMLSHFDYWGQGTLVTVSS
B11: BMS2h-730 (other)
VL: DIQMTQSPSSLSASVGDRVTITCRASQDIKDWLHWYQQKPGKAPKLLIYFASGLQSGVPSRFSGSGSGTDFTLTISSLQPEDSATYYCQQHYSTPYTSGQGTKVEIKR
B12: BMS2h-706 (other)
VH: EVQLLESGGGLVQPGGSLRLSCAASGFTFGSYKMLWVRQAPGKGLEWVSSITNSGTETYYADSVKGRFTISRDNSKNTLYLQMNSLRAEDTAVYYCAKSMYPDLEIVHFDYWGQGTLVTVSS
B13: BMS2h-710 (other)
VH: EVQLLESGGGLVQPGGSLRLSCAASGFTFNTYSMSWVRQAPGKGLEWVSWIDADGWVTYYADSVKGRFTISRDNSKNTLYLQMNSLRAEDTAVYYCAQTGHTFDYWGQGTLVTVSS
B14: BMS2h-717 (other)
VH: EVQLLESGGGLVQPGGSLRLSCAASGFTFSSYEMAWVRQAPGKGLEWVSRIEPDGSNTYYADSVKGRFTISRDNSKNTLYLQMNSLRAEDTAVYYCAKGPDNFTMFDYWGQGTLVTVSS
B15: BMS2h-744 (other)
VH: EVQLLESGGGLVQPGGSLRLSCAASGFTFKEHDMFWVRQAPGKGLEWVSGIGAEGVWTYYADSVKGRFTISRDNSKNTLYLQMNSLRAEDTAVYYCAEPTMSNGSQSRFDYWGQGTLVTVSS
B16: BMS2h-572-12 (other)
VH: EVQLLESGGGLVQPGGSLRLSCAASGFTFNWQLMGWARQAPGKGLEWVSGIEGPGDVTYYADSVKGRFTISRDNSKNTLYLQMNSLRAEDTAVYYCAKVGKESNSDYRGQGTLVTVSS
B17: BMS2h-572-22 (other)
VH: EVQLFESGGGSVQPGGSLRLSCAASGFTFNWQLMGWVRQAPGKGLEWVSGIEGPGDVTYYADSVKGRFTISRDNSKNTLYLQMNSLRAEDTAVYYCAKVGKESNSDYRGQGTLVTVSS
B18: BMS2h-726 (other)
VH: EVQLLESGGGLVQPGGSLRLSCAASGFTFDNYKMYWVRQAPGKGLEWVSSISEIGNLTYYADSVKGRFTISRDNSKNTLYLQMNSLRAEDTAVYYCAIALTRFDYWGQGTLVTVSS
B19: BMS2h-722 (other)
VH: EVQLLESGGGLVQPGGSLRLSCAASGFTFTKYPMAWVRQAPGKGLEWVSGIDANGNRTYYADSVKGRFTISRDNSKNTLYLQMNSLRAEDTAVYYCAEGTWRRHFAIFDYWGQGTLVTVSS
B20: BMS2h-719 (other)
VH: EVQLLESGGGLVQPGGSLRLSCAASGFTFKRYEMTWVRQAPGKGLEWVSSISSDGSFTYYADSVKGRFTISRDNSKNTLYLQMNSLRAEDTAVYYCAEPFTEFDYWGQGTLVTVSS
B21: BMS2h-719-203 (other)
VH: EVQLLESGGGLVQPGGSLRLSCAASGFTFNSYEMMWVRQAPGKGLEWVSSISSDGSFTYYADSVKGRFTISRDNSKNTLYLQMNSLRAEDTAVYYCAEPFTEFDYWGHGTLVTVSS
B22: BMS2h-719-213 (other)
VH: EVQLLESGGGLVQPGGSLRLSCAASGFTFKRYEMMWVRQAPGKGLEWVSSISSDGSFTYYADSVKGRFTISRDNSKNTLYLQMNSLRAEDTAVYYCADPFTEMDYWGHGTLVTVSS
B23: BMS2h-719-214 (other)
VH: EVQLLESGGGLVQPGGSLRLSCAASGFTFKRYEMMWVRQAPGKGLEWVSSISSDGSFTYYADSVKGRFTISRDNSKNTLYLQMNSLRAEDTAVYYCADPFTEFDYWGHGTLVTVSS
B24: BMS2h-719-215 (other)
VH: EVQLLESGGGLVQPGGSLRLSCAASGFTFKRYEMMWVRQAPGKGLEWVSSISSDGSFTYYADSVKGRFTISRDNSKNTLYLQMNSLRAEDTAVYYCAEPFTELDYWGHGTLVTVSS
B25: BMS2h-719-218 (other)
VH: EVQLLESGGGLVQPGGSLRLSCAASGFTFKRYEMMWVRQAPGKGLEWVSSISSDGSFTYYAESVKGRFTISRDNSKNTLYLQMNSLRAEDTAVYYCAEPFTEFDYWGHGTLVTVSS
B26: BMS2h-725 (other)
VH: EVQLLESGGGLVQPGGSLRLSCAASGFTFSAYTMGWVRQAPGKGLEWVSLIGDRGSWTYYADSVKGRFTISRDNSKNTLYLQMNSLRAEDTAVYYCAEPSDPTKFDYWGQGTLVTVSS
B27: BMS2h-725-19 (other)
VH: EVQLLESGGGLVQPGGSLRLSCAASGFTFSAYTMGWVRQAPGKGLEWVSLIGDRGSWTYYADSVKGRFTISRDNSKNTLYLQMNSLRAEDTAVYYCADPSDPTKFVYWGQGTLVTVSS
B28: BMS2h-725-9 (other)
VH: EVQLLESGGGLVQPGGSLRLSCAASGFTFSAYTMGWVRQAPGMGLEWVSLIGDRGSWTYYADSVKGRFTISRDNSKNTLYLQMNSLRAEDTAVYYCAEPSDPTKFDYWGQGTLVTVSS
B29: BMS2h-725-2 (other)
VH: EVQLLESGGGLVQPGGSLRLSCAASGFTFSAYTMGWVRQAPGKGLEWVSLIGDRGSWTYYADSVKGRFTISRDNSKNTLYLQMNSLRAEDTAVYYCAEPSDPTKFVYWGQGTPVTVSS
B30: BMS2h-712 (other)
VH: EVQLLESGGGLVQPGGSLRLSCAASGFTFPEYEMKWVRQAPGKGLEWVSTITPSGGHTYYADSVKGRFTISRDNSKNTLYLQMNSLRAEDAAVYYCAIPLSSFDYWGRGTLVTVSS
B31: BMS2h-731 (other)
VL: DIQMTQSPPSLSASVGDRVTITCRASQLISSHLDWYQQKPGKAPKLLVYDASELQSGVPSRFSGSGSGTDFTLTISSLQPEDFATYYCQQHRSLPFTFGQGTKVEIKR

Target: T1, human isoleucine zipper-CD40L …
Assay: cell-based or functional assay

Row | Binder | hIZCD40L-driven Human B Cell Proliferation EC50
1 | B1 | > 7 µM
2 | B2 | > 7 µM
3 | B3 | 6.4 µM and 3.5 µM and > 7 µM
4 | B4 | > 7 µM
5 | B5 | > 7 µM
6 | B6 | > 7 µM
7 | B7 | > 7 µM
8 | B8 | > 7 µM
9 | B9 | > 7 µM
10 | B10 | > 7 µM
11 | B11 | > 7 µM
12 | B12 | > 7 µM
13 | B13 | > 7 µM
14 | B14 | > 7 µM
15 | B15 | > 7 µM
16 | B16 | 0.079 µM and 0.076 µM

Row | Binder | hIZCD40L-driven Human B Cell Proliferation EC50
17 | B17 | 0.357 µM and 0.305 µM
18 | B18 | > 7 µM
19 | B19 | > 7 µM
20 | B20 | 0.6 µM
21 | B21 | 0.081 µM and 0.096 µM
22 | B22 | 0.062 µM and 0.098 µM
23 | B23 | 0.066 µM and 0.089 µM
24 | B24 | 0.092 µM and 0.091 µM
25 | B25 | 0.057 µM and 0.06 µM
26 | B26 | 6.4 µM
27 | B27 | > 7 µM
28 | B28 | > 7 µM
29 | B29 | > 7 µM
30 | B30 | > 7 µM
31 | B31 | 5.8 µM
